In the supplement of paper PMC9170038:

System: MS2 coat protein
Experiment: apparent KD of MS2 coat protein; designed switch direction (-1 OFF switch, 1 ON switch): -1; higher = weaker reporter binding
Method in brief: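 Transcription of designed RNA switches on Illumina chips was done by stalled E. coli RNA polymerase. SNAP-549-labelled MS2 coat protein was then titrated in doubling steps from 0.7 or 1.5 nM to 3 µM, with steps of 0.8–1.5 h at the lowest and 10–20 min at the highest concentration. The per-design median over clusters of curve-fitted normalised fluorescence is reported as apparent KD.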

[1] = Eterna round: R95, input ligand: FMN 200 uM
[2] = Eterna round: R95, input ligand: microRNA oligo, concentration not stated
[3] = Eterna round: R95, input ligand: none
[4] = input ligand: microRNA oligo, concentration not stated

Sequence	apparent KD of MS2 coat protein [1] [nM]	apparent KD of MS2 coat protein [2] [nM]	apparent KD of MS2 coat protein [3] [nM]	apparent KD of MS2 coat protein (input ligand: FMN 200 uM) [nM]	apparent KD of MS2 coat protein [4] [nM]	apparent KD of MS2 coat protein (input ligand: none) [nM]
AGUACUUACACGAAAGUGUUAGUACAAUAAGCUUGUGAAACAUGAGGAUCACCCAUGUCCUCAUAAGCUCGUCUUAU [salish99_TOv2_r3_016] (puzzle: Sensor v3, turn-off variant 2)	18.6	615	17.1	–	–	–
UAAUUAAAUGUAGGAUAUCUGCACGAUUAGUGCAGAGAAGGACAUGAGGAUCACCCAUGUAGAUCAAAUUAAAUUAAUUUAAUU [ENG1/5-D1] (Eterna round: R96, puzzle: Exclusion NG 1)	–	–	–	92.2	24.5	33.8
AACAGUACAGGAUAUACAUGAGGAUCACCCAUGUGAGACUUAAGUGGCGUACCACAAAGUAGAAGGGUACUGGA [JL Maslow Revisted mod 8] (Eterna round: R96, puzzle: Exclusion 3)	–	–	–	838	85.9	90.3
ACAUGAGGAUCACCCAUGUCUGGCUGGUCUGCUCCGGCUGUUGAGGAUAUAGUUCGGUGUUCGCGCUAGAAGGUGAGGGCUGGC [Aenatbe mod 37] (Eterna round: R96, puzzle: Exclusion NG 3)	–	–	–	32.2	23.1	35.6
UGAUCUAGCGGAGGAUAUACAUGAGGAUCACCCAUGUAGUAGUGAGUUGCGUACAGCUCACUUGUGUAGAAGGCCGCUAGAUCU [JL ENG2 3.59] (Eterna round: R96, puzzle: Exclusion NG 2)	–	–	–	16.5	10.1	12.7
CAGUACUGAGGAUAUACAUGAGGAUCACCCAUGUGCUUUAGCUAGGAUACUAGCACUAGUAGAAGGCAGUACUG [Fiskers Ex 3 828 mod 10] (puzzle: Exclusion 3)	–	12.3	–	–	–	–
AAAUAAUGAGGAUAUACAGUGUAAAACAUGAGGAUCACCCAUGUUCUUCAAUUAGUAUUUGUAGAAGGCAUAGGUA [JR_Ex5_Sub094] (Eterna round: R97, puzzle: Exclusion 5)	–	–	–	38.5	–	60.7
CAGGACUGAGGAUAUGCGCGGACAAGAUCCUCAAUCCCAAAACAUGAGGAUCACCCAUGUAGAAGGCAGAAAUA [Edbein] (puzzle: Exclusion 2)	32.9	35.4	31	–	–	–
GGAAUACAUGAGGAUCACCCAUGUAAGGAUAUGCUGAUUAAAUUGGAUUAAUUAUGCAGCAGAAGGUACAAAAG [Mat - Mod of my Eli Mod D49] (puzzle: Exclusion 1)	–	82.3	–	–	–	–
ACAAUGUUAGGAUAUCUGACAAUUAGUCUCGACUAGUCGAAAGAGAAGGAACAUGAGGAUCACCCAUGUAGAUC [EX4 #73] (Eterna round: R97, puzzle: Exclusion 4)	–	–	–	144	–	37.4
UCACCGCAAGGAUAUACUUGCGGUGAUGCUCGAAAUCUUCUACUUGAGGAUCACCCAAGUAGAAGGUGCGGUGA [jl-ex2.4.67 ViennaUCT mod] (Eterna round: R97, puzzle: Exclusion 2)	–	–	–	13	–	12.1
UUUUAGUCAGGAUAUACAUGAGGAUCACCCAUGUAAAAUUUUAAUUUAAUUUUAAGGUGUAGAAGGGACAUUUA [Ex3 #6] (Eterna round: R97, puzzle: Exclusion 3)	–	–	–	28.4	–	33.6
GGAAGGAGUGUAAGGAUAUCCUCCUCGAAAGAGGAGGAGAAGGUACAUGAGGAUCACCCAUGUAGAGGAGGAGG [AK-MS2ROC-r4-Bmoexclusion4-10.1] (Eterna round: R97, puzzle: Brourd's mod of Exclusion 4)	–	–	–	73.6	–	35.7
CAAAAGCUAGGAUAUUGAGGUGGGCACAUGAGGAUCACCCAUGUGGACCUCGAGCCUACGCAAGAAGGAGUAAAAU [Rioren] (puzzle: Exclusion 5)	18	13.1	17	–	–	–
UUUGAUAGCACAGGAUAUUGUCAUUUGAGUUGUCAAGAAGGGUGUACAUGAGGAUCACCCAUGUAAUGGUUGCCUCGCUGACUU [JR_ExcNG1_Sub007] (Eterna round: R96, puzzle: Exclusion NG 1)	–	–	–	–	105	–
AGCAUGUAAGGAUAUGCAACACGACGUUCAAUCGUCGUGCCGCAGAAGGUACAUGAGGAUCACCCAUGUGCUCC [Xesodied] (puzzle: Exclusion 4)	–	75.4	–	–	–	–
UGAGUGCUGCGAGGAUAUACAUGAGGAUCACCCAUGUAAUCGUGUGAGCCAAAGGCUCACACGAAGUAGAAGGCGCAGUACUCU [Mat - Exclusion NG 2 - Mod of JL - D25] (Eterna round: R96, puzzle: Exclusion NG 2)	–	–	–	12.5	11.1	15.2
